Reference: US20090124537A1
Bridges are numbered along the chain shown (N, C = ends). Where no end group is shown, it is not given here.

Legend:
[1] = target: BMP-7 receptor of ROS cell plasma membrane fraction (ROS cell type II BMP receptor) (rat); test: cell-based or functional assay
[2] = target: BMP-7 receptor of ROS cell plasma membrane fraction (ROS cell type II BMP receptor) (rat); test: radioligand receptor assay, displacement of 125I-BMP-7 from ROS cell plasma membranes
[3] = target: BMP-7 receptor of ROS cell plasma membrane fraction (ROS cell type II BMP receptor) (rat); test: radioligand receptor assay, 125I-BMP-7 on ROS cell plasma membranes

CFRDLGWQDWIIAPC (disulfide 1-15 (inferred)) [F1-2]
50% inhibition of the cell responsive to BMP-7 (ROS cell alkaline phosphatase assay) [1]: 10 µM | concentration required to inhibit the binding of 125I-labeled BMP-7 [2]: 179 µM

CCFINPETVCC (cyclized (disulfide bond between cysteines)) [H-2C]
50% inhibition of cellular responsiveness to BMP-7 (ROS cell alkaline phosphatase assay) [1]: 5 µM | peptide concentration that potentiated the binding of 125I-labeled BMP-7 [3]: 8 µM

CYFDDSSNVIC (disulfide 1-11 (inferred)) [F2-2]
potentiation of BMP-7 induced cell responsiveness at 0.6-60 µM peptide (ROS cell alkaline phosphatase assay) [1]: 20% | IC50 [2]: 1 µM
